Columns and labels:
[1] = test system: dexamethasone treated thymocytes; test: Phagocytic activity of CER+ Ba/F3 cells against primary apoptotic thymocytes; type: cell-based, C3H mouse; settings: for engulfment of dexamethasone-treated thymocytes: target:effector 10:1, 3 hours or overnight, fluorescent microscopy, vs EGFRt control
Description: One day prior to phagocytic assay, primary thymocytes were isolated from a C3H mouse (Charles River Laboratories International, Inc.). Thymocytes were cultured in complete RPMI 1640 growth media supplemented with 10% fetal bovine serum and 1% penicillin-streptomycin in a 6-well plate. To induce apoptosis and phosphatidylserine expression on the cell surface, thymocytes were treated with 1 μM dexamethansone for 24 hours. Untreated thymocytes were used as a negative control. Thymocytes were collected from the 6-well plates, washed once with sterile 1X PBS, and then stained with 1 ng/μ1 pH sensitive pHrodo™ Red dye (ThermoFisher Scientific, Catalog #P36600) in PBS at room temperature for 15 minutes. Labeling target cells with pHrodo Red dye permits visualization of cells that are engulfed and transported into lysosomes due to their increased light emission in the acidic lysosomal environment (Miksa et al., 2009, Immunol. Methods 342:71-7). The cells were then supplemented with growth media and washed one more time to remove any excess pHrodo Red. pHrodo Red stained thymocytes were plated on a flat bottom 96 well plate at 250,000 cells/well in RMPI 1640 complete media. […]
[…] The 96 well plate was then viewed using KEYENCE BZ-X710 fluorescence microscope, 20X objective. […]
A phagocytic index was calculated by multiplying [mean of total number of engulfed target cells/total number of counted CER modified cells (e.g., phagocytic frequency)] by [average area of target cell staining per CER+Ba/F3 cell x 100 (e.g., hybrid capture)] as compared to control EGFRt+Ba/F3 cells (see, FIG. 8). […]
Primary C3H mouse thymocytes were isolated, treated with dexamethasone, and stained with pHrodo Red as described in Example 1. […] Co-culture experiments were carried out at a 10:1 target cell to effector cell ratio, and Ba/F3 CER07^+tEGFR^+ cells were quantified for phagocytosis by fluorescence microscopy and FACs as described in Example 1. […]

[2] = test system: CT26 murine colon carcinoma cells; test: Phagocytic activity of CER+ Ba/F3 cells against murine cell line CT26; type: cell-based; settings: target:effector 5:1, 3 hours
Description: One day prior to the phagocytosis assay, CT26 murine colon carcinoma cells were cultured in complete RPMI 1640 growth media supplemented with 10% fetal bovine serum and 1% penicillin-streptomycin in a 6-well plate and treated with 1 mM staurosporine (STS) for 12 hours to induce apoptosis. Untreated CT26 cells were used as a negative control.
On the day of the phagocytosis assay, CT26 cells were collected, washed twice with 1×PBS to remove excess staurosporine and then stained with 1 ng/μ1 pHrodo Red in PBS at room temperature for 15 minutes. […]
Target CT26 cells were co-cultured with stained, CER05^+tEGFR^+ cells at a ratio of 5:1 (target cell:effector cell) for 3 hours at 37° C. […] The 96 well plate was then viewed using KEYENCE BZ-X710 fluorescence microscope, 20X objective. […]
A hybrid capture algorithm that detects fluorescence of pHrodo Red within CELLTRACE Violet staining area was applied to fluorescent images to quantify the area of engulfed target cells/area of CER^+ B cells or control tEGFR+ B cells (see, FIG. 12). […]
A hybrid capture algorithm that detects fluorescence of pHrodo Red within CELLTRACE Violet staining area was applied to fluorescent images to quantify the area of engulfed target cells/area of CER^+ B cells (see, FIG. 17). […]

human primary B cells = test: Proliferation of CER+ B cells co-cultured with paclitaxel treated Jurkat cells (CELLTRACE Violet dilution); type: cell-based; settings: 5 days co-culture with paclitaxel (30 μM) treated Jurkat cells, no exogenous cytokines
Description: The proliferation capacity of CER19+ and CER21+ human primary B cells was evaluated by co-culture with paclitaxel (30 μM) treated Jurkat lymphoma cells. CER-transduced B cells were labeled with CELLTRACE Violet and then co-cultured with paclitaxel treated Jurkat cells a target cell to effector cell ratio of 5:1 at 37° C. in the absence of exogenous cytokines for 5 days. Proliferation of CER19+ or CER21+B cells was assessed by flow cytometry by measuring dilution of CELLTRACE Violet (FIG. 23). Both CER19+ and CER21+ B cells increased approximately 10-fold after 5 days of co-culture in the absence of exogenous cytokines.

| Molecule | co-localization of pHrodo red labeled thymocytes with LysoTracker green vesicles ([1]; 6 hours, 50 nM LysoTracker green) | engulfment of dexamethasone-treated thymocytes [1] | phagocytosis of staurosporine treated CT26 cells [2] | increase of CER+ B cells (human primary B cells) |
| --- | --- | --- | --- | --- |
| CER05: Tim4 binding domain, Tim4 transmembrane domain, TLR4 signaling domain; SEQ ID NO:81 (protein, CER05 chimeric engulfment receptor) MSKGLLLLWLVTELWWLYLTPAASEDTIIGFLGQPVTLPCHYLSWSQSRNSMCWGKGSCPNSKCNAELLRTDGTRIISRKSTKYTLLGKVQFGEVSLTISNTNRGDSGVYCCRIEVPGWFNDVKKNVRLELRRATTTKKPTTTTRPTTTPYVTTTTPELLPTTVMTTSVLPTTTPPQTLATTAFSTAVTTCPSTTPGSFSQETTKGSAFTTESETLPASNHSQRSMMTISTDIAVLRPTGSNPGILPSTSQLTTQKTTLTTSESLQKTTKSHQINSRQTILIIACCVGFVLMVLLFLAFLKFYFHLMLLAGCIKYGRGENIYDAFVIYSSQDEDWVRNELVKNLEEGVPPFQLCLHYRDFIPGVAIAANIIHEGFHKSRKVIVVVSQHFIQSRWCIFEYEIAQTWQFLSSRAGIIFIVLQKVEKTLLRQQVELYRLLSRNTYLEWEDSVLGRHIFWRRLRKALLDGKSWNPEGTVGTGCNWQEATSI | pHrodo-labeled target cells have been internalized into lysosomes | engulf dexamethasone-treated thymocytes | in vitro phagocytosis |  |
| CER07: Tim4 binding domain, TLR4 juxtamembrane spacer, TLR4 transmembrane domain, TLR4 signaling domain; SEQ ID NO:83 (protein, CER07 chimeric engulfment receptor) MSKGLLLLWLVTELWWLYLTPAASEDTIIGFLGQPVTLPCHYLSWSQSRNSMCWGKGSCPNSKCNAELLRTDGTRIISRKSTKYTLLGKVQFGEVSLTISNTNRGDSGVYCCRIEVPGWFNDVKKNVRLELRRATTTKKPTTTTRPTTTPYVTTTTPELLPTTVMTTSVLPTTTPPQTLATTAFSTAVTTCPSTTPGSFSQETTKGSAFTTESETLPASNHSQRSMMTISTDIAVLRPTGSNPGILPSTSQLTTQKTTLTTSESLQKTTKSHQINSRQTPVLSLNITCQMNKTIIGVSVLSVLVVSVVAVLVYKFYFHLMLLAGCIKYGRGENIYDAFVIYSSQDEDWVRNELVKNLEEGVPPFQLCLHYRDFIPGVAIAANIIHEGFHKSRKVIVVVSQHFIQSRWCIFEYEIAQTWQFLSSRAGIIFIVLQKVEKTLLRQQVELYRLLSRNTYLEWEDSVLGRHIFWRRLRKALLDGKSWNPEGTVGTGCNWQEATSI |  | engulfed dexamethasone-treated thymocytes | engulfed staurosporine treated CT26 cells |  |
| CER19: Tim4 binding and transmembrane domains, TLR5 signaling domain; SEQ ID NO:86 (protein, CER19 chimeric engulfment receptor) MSKGLLLLWLVTELWWLYLTPAASEDTIIGFLGQPVTLPCHYLSWSQSRNSMCWGKGSCPNSKCNAELLRTDGTRIISRKSTKYTLLGKVQFGEVSLTISNTNRGDSGVYCCRIEVPGWFNDVKKNVRLELRRATTTKKPTTTTRPTTTPYVTTTTPELLPTTVMTTSVLPTTTPPQTLATTAFSTAVTTCPSTTPGSFSQETTKGSAFTTESETLPASNHSQRSMMTISTDIAVLRPTGSNPGILPSTSQLTTQKTTLTTSESLQKTTKSHQINSRQTILIIACCVGFVLMVLLFLAFLTKFRGFCFICYKTAQRLVFKDHPQGTEPDMYKYDAYLCFSSKDFTWVQNALLKHLDTQYSDQNRFNLCFEERDFVPGENRIANIQDAIWNSRKIVCLVSRHFLRDGWCLEAFSYAQGRCLSDLNSALIMVVVGSLSQYQLMKHQSIRGFVQKQQYLRWPEDFQDVGWFLHKLSQQILKKEKEKKKDNNIPLQTVATIS |  |  |  | approximately 10 fold |
